Measured values published in patent US20230312722A1 (NONA BIOSCIENCES SUZHOU, published 2023).
Numbering of substitutions follows the chain as printed. Read-outs that look alike come from different tables or passages of the source.

Tests used:
[1] = molecular target: T1, human B7H4 on the cell surface (human, UniProt Q7Z7D3 25-282); assay: FACS, SK-BR-3 cells
T1 construct: whole, on cells; also called CHOK1/hu B7H4; B7H4 on SK-BR-3
T1 sequence (looked up): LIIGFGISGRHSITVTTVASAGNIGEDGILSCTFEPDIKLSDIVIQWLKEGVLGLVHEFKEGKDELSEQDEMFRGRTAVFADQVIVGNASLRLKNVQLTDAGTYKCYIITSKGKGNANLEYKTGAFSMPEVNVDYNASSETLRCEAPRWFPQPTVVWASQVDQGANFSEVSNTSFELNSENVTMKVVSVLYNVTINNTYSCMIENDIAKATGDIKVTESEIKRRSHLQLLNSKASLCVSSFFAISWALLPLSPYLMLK
Description: (§1) This example is intended to investigate the in vitro binding activity of anti-human B7H4 H2L2 monoclonal antibody to human/cynomolgus monkey/mouse B7H4. Antibody binding experiments at the cellular level were performed using CHOK1 cell line overexpressing human B7H4 (CHOK1/hu B7H4, Harbour BioMed), CHOK1 cell line overexpressing cynomolgus monkey B7H4 (CHOK1/cyno B7H4, Harbour BioMed), CHOK1 cell line overexpressing mouse B7H4 (CHOK1/m B7H4, Harbour BioMed) and SK-BR-3 cell line (ATCC® HTB-30) highly expressing human B7H4. Briefly, CHOK1/hu B7H4 cells, CHOK1/cyno B7H4 cells, CHOK1/m B7H4 cells or SK-BR-3 cells were digested and resuspended with PBS containing 2% BSA. The cell density was adjusted to 1×10⁶ cells/mL. The cells were seeded in a 96-well V-bottom plate (Corning, #3894) at 100 μL/well, followed by the addition of test antibodies diluted in a 3-fold concentration gradient of 2 times the final concentration, each at 100 μL/well. The cells were incubated at 4° C. for 2 h away from light. Thereafter, the cells in each well were rinsed twice with 100 μL of pre-cooled PBS containing 2% BSA, and centrifuged at 500 g at 4° C. for 5 min, and then the supernatant was discarded. […] Finally, the cells in each well were resuspended with 200 μL of pre-cooled PBS containing 2% BSA, and the fluorescence signal values were read using an ACEA Novocyte3000 flow cytometer.

[2] = molecular target: T2, mouse B7H4 on the cell surface (mouse, UniProt Q7TSP5 25-257); assay: FACS, CHOK1/m B7H4 cells
T2 construct: whole, on cells; also called CHOK1/m B7H4
T2 sequence (looked up): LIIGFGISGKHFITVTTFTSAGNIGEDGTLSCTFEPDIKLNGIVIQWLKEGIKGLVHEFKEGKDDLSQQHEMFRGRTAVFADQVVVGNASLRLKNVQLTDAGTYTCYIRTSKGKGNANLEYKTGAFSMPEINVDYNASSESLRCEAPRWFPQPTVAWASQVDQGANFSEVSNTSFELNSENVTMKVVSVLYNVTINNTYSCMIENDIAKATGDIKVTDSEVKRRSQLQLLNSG
Description: as §1

[3] = molecular target: T2, mouse B7H4 on the cell surface; assay: FACS, CHOK1/m B7H4 cells; remark: listed apart in the source
Description: as §1

[4] = molecular target: T3, cynomolgus monkey B7H4 on the cell surface (cynomolgus monkey, UniProt A0A2K5U6P5 25-282); assay: FACS, CHOK1/cyno B7H4 cells
T3 construct: whole, on cells; also called CHOK1/cyno B7H4
T3 sequence: T1 sequence (looked up) with L53I, F242L, S252A
Description: This example is intended to investigate the in vitro binding activity of anti-human B7H4 H2L2 monoclonal antibody to human/cynomolgus monkey/mouse B7H4. Antibody binding experiments at the cellular level were performed using CHOK1 cell line overexpressing human B7H4 (CHOK1/hu B7H4, Harbour BioMed), CHOK1 cell line overexpressing cynomolgus monkey B7H4 (CHOK1/cyno B7H4, Harbour BioMed), CHOK1 cell line overexpressing mouse B7H4 (CHOK1/m B7H4, Harbour BioMed) and SK-BR-3 cell line (ATCC® HTB-30) highly expressing human B7H4. Briefly, CHOK1/hu B7H4 cells, CHOK1/cyno B7H4 cells, CHOK1/m B7H4 cells or SK-BR-3 cells were digested and resuspended with PBS containing 2% BSA. The cell density was adjusted to 1×10⁶ cells/mL. The cells were seeded in a 96-well V-bottom plate (Corning, #3894) at 100 μL/well, followed by the addition of test antibodies diluted in a 3-fold concentration gradient of 2 times the final concentration, each at 100 μL/well. The cells were incubated at 4° C. for 2 h away from light. Thereafter, the cells in each well were rinsed twice with 100 μL of pre-cooled PBS containing 2% BSA, and centrifuged at 500 g at 4° C. for 5 min, and then the supernatant was discarded. Then 100 μL of a fluorescent secondary antibody (Alexa Fluor 488-conjugated AffiniPure Goat Anti-Human IgG, Fcγ Fragment Specific, Jackson, #109-545-098, 1:500 diluted) was added to each well. The plate was incubated away from light at 4° C. for 1 h. The cells in each well were washed twice with 100 μL of pre-cooled PBS containing 2% BSA, and centrifuged at 500 g at 4° C. for 5 minutes, and then the supernatant was discarded. Finally, the cells in each well were resuspended with 200 μL of pre-cooled PBS containing 2% BSA, and the fluorescence signal values were read using an ACEA Novocyte3000 flow cytometer.

[5] = molecular target: T3, cynomolgus monkey B7H4 on the cell …; assay: FACS, CHOK1/cyno B7H4 cells; remark: listed apart in the source
Description: as §1

[6] = molecular target: T4, Human B7H4 (his tag), Sino Biological #10738-H08H (human, UniProt Q7Z7D3 25-259); assay: SPR (Biacore T200), antibody captured on Protein A, B7H4-his as analyte, 1:1 fit
T4 construct: extracellular domain; Bought protein; also called hB7H4-ECD-his
T4 sequence (looked up): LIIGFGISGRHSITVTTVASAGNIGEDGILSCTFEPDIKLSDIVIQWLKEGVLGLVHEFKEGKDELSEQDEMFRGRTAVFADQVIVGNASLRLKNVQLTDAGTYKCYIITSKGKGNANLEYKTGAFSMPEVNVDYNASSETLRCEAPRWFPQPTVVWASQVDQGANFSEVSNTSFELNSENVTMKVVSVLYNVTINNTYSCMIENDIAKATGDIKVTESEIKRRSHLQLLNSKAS
Description: 10×HBS-EP+ (GE Healthcare, #BR-1006-69) was diluted 10-fold and then taken as an experimental buffer. The flow rate was set at 10 μL/min, and Protein A was coupled to 4 channels of a chip CM5 (GE Healthcare, #BR-1005-30) through the following procedures: 1) the injection time was set to 800 s, and a fresh mixture of 50 mM NHS and 200 mM EDC was injected into the 4 channels in a volume ratio of 1:1; 2) Protein A was diluted to 20 μg/mL with sodium acetate (GE Healthcare, #BR-1003-50) at pH 4.5 and injected into each channel for 800 s; and 3) 1 M ethanolamine at pH 8.5 was injected for 800 s to block the remaining active carboxyl groups on the chip surface. After blocking, the instrument was equilibrated with 1×HBS-EP+buffer for 2 hours, and the final coupling level of Protein A was about 2000 RU.
A multi-cycle kinetics mode was set at Biacore T200, and each cycle included antibody capture, analyte binding and chip regeneration. […] Finally, 10 mM glycine-hydrochloric acid at pH 1.5 (GE Healthcare, #BR-1003-54) was injected at the same flow rate for 30 s to regenerate the chip.
The experimental results were analyzed using the Biacore T200 analysis software 2.0, with channel 1 subtracted as a reference channel and a 1:1 kinetic fitting model selected as an analysis model.

EC50 [1]: 1.2 nM | Maximum MFI [1]: 266000 MFI | EC50 [2]: 1.38 nM | Maximum MFI [2]: 858000 MFI | EC50 [3]: 1.73 nM | Maximum MFI [3]: 1.75e+06 MFI | EC50 [4]: 2.06 nM | Maximum MFI [4]: 1.32e+06 MFI | EC50 [5]: 2.1 nM | Maximum MFI [5]: 1.99e+06 MFI | Kd [6]: 4.67 nM | koff [6]: 0.000189 s⁻¹ | kon [6]: 40400 M⁻¹ s⁻¹
B1: Control antibody 1 (PR000157) (antibody, V domains shown)
VH: EVQLVQSGAEVKKPGASVKVSCKASGYTFTSYWIGWVRQAPGQGLEWIGDIYPGGGYTNYNEKFKGRVTITRDTSTSTAYLELSSLRSEDTAVYYCARLAGSSYRGAMDSWGQGTLVTVSS
VL: DIQMTQSPSSLSASVGDRVTITCKASQGFNKYVAWYQQKPGKAPKLLIYYTSTLQPGVPSRFSGSGSGRDYTLTISSLQPEDFATYYCLQYGDLLYAFGQGTKVEIKR
notes: Anti-B7H4 IgG1 control antibody from WO2016040724A1; also called 1D11.v1.9varC2
